From article doi:10.1101/2025.08.15.670450 (2025)

Tests used:
VEGF-A Binder 13 [1] = assay: BLI; KD1
GDM_VEGFA_54 [2] = assay: reported in original publication
GDM_VEGFA_54 [3] = assay: BLI
VEGF-A_Binder_13 = assay: BLI
VEGF-A Binder 13 [4] = assay: BLI; KD2, second site

B1: Vascular Endothelial Growth Factor A (VEGF-A) (ligand)
chain: MTDRQTDTAPSPSYHLLPGRRRTVDAAASRGQGPEPAPGGGVEGVGARGVALKLFVQLLGCSRFGGAVVRAGEAEPSGAARSASSGREEPQPEEGEEEEEKEEERGPQWRLGARKPGSWTGEAAVCADSAPAARAPQALARASGRGGRVARRGAEESGPPHSPSRRGSASRAGPGRASETMNFLLSWVHWSLALLLYLHHAKWSQAAPMAEGGGQNHHEVVKFMDVYQRSYCHPIETLVDIFQEYPDEIEYIFKPSCVPLMRCGGCCNDEGLECVPTEESNITMQIMRIKPHQGQHIGEMSFLQHNKCECRPKKDRARQEKKSVRGKGKGQKRKRKKSRYKSWSVPCGPCSERRKHLFVQDPQTCKCSCKNTDSRCKARQLELNERTCRCDKPRR
For B1, the Kd (VEGF-A Binder 13 [1]) was 26.4 nM, the Kd (GDM_VEGFA_54 [2]) was 0.48 nM and the Kd (GDM_VEGFA_54 [3]) was 10.1 nM. The Kd (VEGF-A_Binder_13) was 13.4 nM and the Kd (VEGF-A Binder 13 [4]) was 86.4 nM.
